The supplement of paper PMC10567573

B1: ZBED1 (parent)
chain: EQVFSLGDGVSGGFFGIRDSSFL
B2: CDKL4 (parent)
chain: AVKKFVESEDDPVVKKIALREIRM

Variants of: B1
Assay: protein stability index of a GFP-peptide fusion (GPS, HEK-293T) (PSI 1-6); higher = more stable
Conditions: c terminus: native
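Also: lentivirally expressed fusions sorted by FACS into six bins by GFP to DsRed ratio, PSI derived from sequencing read proportions per bin multiplied by bin number.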

Protein stability index of substitutions, site by site:
G13: L 2.23; M 2.2; N 3.58; P 3.49; Q 3.48; R 2.96; S 3.49; T 3.17; V 2.22; W 1.82; Y 2.04
F14: A 3.82; C 4.21; D 4.16; E 4.11; G 4.44; H 4.24; I 3.21; K 4.3; L 3.67; M 3.74; N 4.62; P 4.08; Q 4.45; R 4; S 3.71; T 4.12; V 3; W 3.44; Y 3.18
F15: A 4.32; C 3.64; D 4.15; E 3.78; G 3.85; H 4.11; I 3.67; K 4.1; L 3.7; M 3.82; N 4.21; P 4.25; Q 4.63; R 4.13; S 4.43; T 4.08; V 3.65; W 2.88; Y 3.52
G16: A 2.62; C 1.84; D 3.77; E 2.83; F 1.91; H 3.56; I 1.57; K 3.29; L 2.8; M 2.17; N 3.46; P 2.85; Q 2.93; R 3.14; S 2.05; T 2.77; V 1.85; W 1.76; Y 2.29
I17: A 4.37; C 3.76; D 4.55; E 4.71; F 3.42; G 4.17; H 4.03; K 3.8; L 3.68; M 3.75; N 4.02; P 4; Q 4.31; R 4.2; S 4.2; T 4.3; V 3.87; W 3.52; Y 3.28
R18: A 2.92; C 1.98; D 3.98; E 3.93; F 2.07; G 3.42; H 2.62; I 2.26; K 3.96; L 2.78; M 2.71; N 3.9; P 3.28; Q 3.38; S 3.65; T 3.32; V 2.14; W 2.21; Y 2.49
D19: A 1.3; C 2.26; E 2.92; F 3.4; G 2.87; H 2.19; I 1.82; K 3.4; L 2.1; M 1.77; N 2.75; P 2.15; Q 2.15; R 2.78; S 1.68; T 1.85; V 2.65; Y 2.57
S20: A 3.1; C 1.96; D 3.71; E 3.91; F 2.39; G 3.22; H 2.76; I 2.42; K 3.53; L 2.5; M 2.49; N 3.7; P 3.73; Q 3.7; R 3.21; T 3.22; V 2.63; W 2.35; Y 2.96
S21: A 3; C 2.77; D 4.08; E 3.67; F 2.61; G 3.84; H 3.46; I 2.25; K 4.02; L 2.5; M 2.54; N 3.62; P 3.4; Q 3.48; R 3.61; T 3.33; V 1.74; W 2.59; Y 2.66
F22: A 4.15; C 3.39; D 4.06; E 4.08; G 4.14; H 4.5; I 3.04; K 2.39; L 3.41; M 3.49; N 4.22; P 3.43; Q 4.24; R 3.61; S 3.79; T 4.07; V 3.35; W 3.73; Y 3.33
L23: A 2.42; C 3.34; D 3.96; E 4.54; F 2.63; G 1.56; H 3.9; I 2.99; K 4.35; M 3.67; N 3.94; P 3.92; Q 3.98; R 3.35; S 3.25; T 3.33; V 3.19; W 2.66; Y 2.61

Variants of: B2
Assay: as above
Conditions: c terminus: a fixed tail appended

Protein stability index of substitutions, site by site:
A1: C 2.48; D 3.75; E 3.85; F 2.21; G 3.63; H 2.59; I 2.16; K 2.91; L 1.99; M 2.69; N 3.38; P 3.17; Q 3.3; R 2.45; S 3.94; T 3.1; V 2.43; W 2.72; Y 2.2
V2: A 3.8; C 2.85; D 3.71; E 4.01; F 2.52; G 3.82; H 3.03; I 2.31; K 3.55; L 3.7; M 2.79; N 3.63; P 3.74; Q 3.56; R 2.85; S 3.51; T 3.35; W 2.1; Y 2.52
K3: A 2.83; C 2.66; D 3.23; E 3.72; F 1.76; G 2.74; H 3.6; I 1.91; L 2.34; M 2.28; N 3.45; P 3.02; Q 3.04; R 3.39; S 3.23; T 2.86; V 1.95; W 2.35; Y 2.28
K4: A 3.07; C 2.6; D 4.07; E 3.55; F 2.13; G 3.5; H 2.88; I 1.88; L 2.49; M 2.34; N 2.92; P 4.01; Q 3.17; R 2.7; S 3.15; T 3.25; V 2.55; W 2.43; Y 2.25
F5: A 3.66; C 4.34; D 3.75; E 3.94; G 4.28; H 3.24; I 2.94; K 3.55; L 2.98; M 3.33; N 3.14; P 4.07; Q 3.01; R 3.63; S 4.46; T 4; V 3.81; W 2.47; Y 3.46
V6: A 3.07; C 2.82; D 3.65; E 3.72; F 2.1; G 3.33; H 3.08; I 1.93; K 3.26; L 3.23; M 3.23; N 3.6; P 3.78; Q 3.42; R 2.48; S 3.17; T 3.16; W 2.57; Y 2.57
E7: A 2.99; C 2.36; D 2.71; F 1.94; G 1.99; H 2.18; I 2; K 2.61; L 1.97; M 2.43; N 3.19; P 2.97; Q 2.54; R 2.52; S 3.04; T 2.52; V 2.54; W 2.14; Y 2.32
S8: A 2.92
